Substrate in data set [1]: C=C(O[C@@H]1C=C(C(=O)O)C=C[C@H]1O)C(=O)O
In words: coupled fluorimetric assay with PchB (salicylate formation). The following applies: 100 mM Tris-HCl pH 7.7, 10 mM MgCl2, 30°C, 1 µM His6-PchB, 100 nM enzyme. The data set is classed as biochemical, Arabidopsis thaliana. From the text:
coupled fluorimetric assay with PchB (salicylate formation) on AtICS2 (His6-AtICS2, ICS2)

Substrate in data set [2]: C=C(O[C@@H]1C=C(C(=O)O)C=C[C@H]1O)C(=O)O
The description is as above. As to conditions: 100 mM Tris-HCl pH 7.7, 10 mM MgCl2, 30°C, 1 µM His6-PchB, 100 nM enzyme. Type of data set: biochemical, Arabidopsis thaliana. The source says: coupled fluorimetric assay with PchB (salicylate formation) on AtICS1 (His6-AtICS1, ICS1)
This is another data set of the same source.

One may read the Km as the concentration of substrate that gives half-maximal velocity. As usually defined, the kcat is the number of substrate molecules converted per active site and unit of time at saturation. The term kcat/Km denotes the second-order rate constant that governs catalysis at low substrate concentration.

B1: AtICS2 (His6-AtICS2, ICS2) (Arabidopsis thaliana) (protein)
chain: MNGCEADHKAPLGTVETRTLSTVPSPAAATERLITAVSDLKSQPPPFSSGIVRLQVPIEQKIGAIDWLHAQNEILPRSFFSRRSDSGRPDLLQDFSSDNGSSDHNPVSVAGIGSAVFFRDLDPFSHDDWRSIRRFLSSKSPLIRAYGGLRFDPTGKIAVEWEHFGSFYFTVPQVEFDEFGGSSMLAATVAWDNELSWTLENAIEALQETMLQVSSVIMRLRRESLGVIVVSKNHVPSEGAYYPAVNNALEIIKDKHSPLSKVVLARSSRIITDTDIDPIAWLARLQCEGQDAYQFCLQPPGAPAFIGNTPERLFHRKHLGVCSEALAATRPRGDSKVREMEIERDLLTSPKDDLEFSIVRENIREKLKTICDRVVVKPHKSVRKLARVQHLYSQLAGQLKREDDEFNILTALHPTPAVCGCPVEEARLLIKQIESFDRGMYAGPIGFFGGGESEFSVGIRSALVEKGLGALIYAGTGIVSGSNPSSEWNELELKISQFTKSLEHESALQPIN
notes: transit peptide removed (forward primer encodes MNGCEA start), N-terminal His6 tag from pET-28a TEV, no tag cleavage described; E. coli Rosetta DE3 pLysS; ~60 kDa; monomer
As for B1, in data set [1], the Michaelis-Menten constant (Km) is 28.8 ± 6.9 µM, the kcat is 0.283 ± 0.02 s⁻¹ and the kcat/Km was found to be 9830 ± 1030 M⁻¹ s⁻¹.

B2: AtICS1 (His6-AtICS1, ICS1) (Arabidopsis thaliana) (protein)
chain: MNGCDGDFKTPLGTVETRTMTAVLSPAAATERLISAVSELKSQPPSFSSGVVRLQVPIDQQIGAIDWLQAQNEIQPRCFFSRRSDVGRPDLLLDLANENGNGNGNGTVSSDRNLVSVAGIGSAVFFRDLDPFSHDDWRSIRRFLSSTSPLIRAYGGMRFDPNGKIAVEWEPFGAFYFSVPQVEFNEFGGSSMLAATIAWDDELSWTLENAIEALQETMLQVSSVVMKLRNRSLGVSVLSKNHVPTKGAYFPAVEKALEMINQKSSPLNKVVLARNSRIITDTDIDPIAWLAQLQREGHDAYQFCLQPPGAPAFIGNTPERLFQRTQLGVCSEALAATRPRAASSARDMEIERDLLTSPKDDLEFSIVRENIREKLNGICDRVVVKPQKTVRKLARVQHLYSQLAGRLTKEDDEYKILAALHPTPAVCGLPAEEARLLIKEIESFDRGMYAGPIGFFGGEESEFAVGIRSALVEKGLGALIYAGTGIVAGSDPSSEWNELDLKISQFTKSIEYEATTSLQAIN
notes: transit peptide removed (forward primer encodes MNGCDG start), N-terminal His6 tag from pET-28a TEV, no tag cleavage described; E. coli Rosetta DE3 pLysS; ~60 kDa; monomer
For the protein B2, in data set [2], the Km was found to be 34.3 ± 3.7 µM, the kcat is 0.635 ± 0.025 s⁻¹ and the kcat/Km is 18500 ± 217 M⁻¹ s⁻¹.

These data come from PMC5408348, “The biochemical properties of the two Arabidopsis thaliana isochorismate synthases” (Biochemical Journal, 2017).
